From publication PMC4446444, “Stable complex formation of CENP-B with the CENP-A nucleosome” come the findings set out here.

Data set [1] has as its target His6-tagged CENP-B DBD complexed with a 21 base-pair DNA (human) (UniProt P07199). Put plainly: pull-down; His6-tagged CENP-B DBD with 21 base-pair CENP-B box DNA (50 nM) held on Ni-NTA agarose beads; histone complex 50 nM; 20 mM Tris-HCl pH 8.0, 300 mM NaCl, 60 mM imidazole, 0.3% Tween-20, BSA, 4 °C 60 min; washes with 500 mM NaCl, 30 mM imidazole; 16% SDS-PAGE with Coomassie.

The next data set has as its target T1, CENP-B DBD (Homo sapiens, UniProt P07199 1-129).
T1 sequence: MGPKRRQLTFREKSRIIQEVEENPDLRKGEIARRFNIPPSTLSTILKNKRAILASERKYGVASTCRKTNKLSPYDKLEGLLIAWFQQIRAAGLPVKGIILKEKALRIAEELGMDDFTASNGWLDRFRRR
Kind of data set: competition; naked competitor; DBD-DNA complex increases with DNA amount; Buffer of the EMSA and competition assays not in material (6% native PAGE, ethidium bromide); pull-down: 20 mM Tris-HCl pH 8.0, 300 mM NaCl, 60 mM imidazole, 0.3% Tween-20, 0.01 ug/ul BSA, 4 C, 60 min. Particulars: protein: recombinant; blunt. On the technique in general: Mobility shift assays separate free from complexed probe on a gel.

In data set [1], “H3.1^CATD-H4 complex (from UniProt P68431 1-75; P49450 75-114; P68431 114-136; P62805 1-103)” returned a percent of H4 in the CENP-B-bound fraction against the CENP-A-H4 complex of 4%.

B1: 166-bp alpha-satellite DNA, proximal CENP-B box (naked) (dsDNA)
DNA 1: ATCTATTTGGACCGCATTGAGGCCTTCGTTGGAAACGGGATTTCTTCATTTCATGCTAGACAGAAGAATTCTCAGTAACTTCTTTGTGCTGTGTGTATTCAACTCACAGAGTGGAACGTCCCTTTGCACAGAGCAGATTTGAAACACTCTTTTTGTAGTCGACGAT
DNA 2: ATCGTCGACTACAAAAAGAGTGTTTCAAATCTGCTCTGTGCAAAGGGACGTTCCACTCTGTGAGTTGAATACACACAGCACAAAGAAGTTACTGAGAATTCTTCTGTCTAGCATGAAATGAAGAAATCCCGTTTCCAACGAAGGCCTCAATGCGGTCCAAATAGAT
As to B1, the binding result with CENP-B DBD is reported as “binds”.
